Laboratory results reported in patent US20200023071A1.
pKd: −log10 of the molar value.

Key:
[1] = biological target: recombinant human CD64 (human) (UniProt P12314); experiment: SPR (Biacore T100), antibody immobilized on sensor chip, soluble CD64 as analyte, 1:1 kinetic binding model
[2] = biological target: human FcRn (human) (UniProt P55899); experiment: SPR (Biacore T100), antibody immobilized on sensor chip, soluble FcR as analyte, steady state affinity model
[3] = biological target: recombinant human CD32a (human) (UniProt P12318); experiment: as above
recombinant human CD32a (human), sequence (P12318 34-217): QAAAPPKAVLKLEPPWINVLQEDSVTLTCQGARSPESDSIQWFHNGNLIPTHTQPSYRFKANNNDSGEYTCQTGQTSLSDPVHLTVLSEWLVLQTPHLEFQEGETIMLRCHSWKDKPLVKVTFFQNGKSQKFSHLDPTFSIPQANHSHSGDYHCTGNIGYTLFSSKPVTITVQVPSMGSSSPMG

[4] = biological target: recombinant human CD16a(V) (human) (UniProt P08637); experiment: as above
recombinant human CD16a(V) (human), sequence (P08637 17-208 F176V limits assumed): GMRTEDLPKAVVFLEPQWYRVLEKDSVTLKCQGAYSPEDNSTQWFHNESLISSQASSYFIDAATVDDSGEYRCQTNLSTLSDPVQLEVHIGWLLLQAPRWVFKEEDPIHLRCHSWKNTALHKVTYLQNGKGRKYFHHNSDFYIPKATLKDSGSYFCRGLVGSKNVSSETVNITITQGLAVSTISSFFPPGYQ

[5] = biological target: recombinant human CD16a(F) (human) (UniProt P08637); experiment: as above
recombinant human CD16a(F) (human), sequence (P08637 17-208 limits assumed): as the sequence (P08637 17-208 F176V limits assumed) above, with V160F counted along it

[6] = biological target: recombinant human CD16b (human) (UniProt O75015); experiment: as above
recombinant human CD16b (human), sequence (O75015 17-200 limits assumed): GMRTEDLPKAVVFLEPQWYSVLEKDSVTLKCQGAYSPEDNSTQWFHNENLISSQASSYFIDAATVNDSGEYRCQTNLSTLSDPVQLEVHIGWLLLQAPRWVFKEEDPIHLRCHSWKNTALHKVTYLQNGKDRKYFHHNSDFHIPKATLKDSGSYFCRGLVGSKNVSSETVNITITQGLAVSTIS

recombinant human CD64 (human), sequence (P12314 16-292 limits assumed): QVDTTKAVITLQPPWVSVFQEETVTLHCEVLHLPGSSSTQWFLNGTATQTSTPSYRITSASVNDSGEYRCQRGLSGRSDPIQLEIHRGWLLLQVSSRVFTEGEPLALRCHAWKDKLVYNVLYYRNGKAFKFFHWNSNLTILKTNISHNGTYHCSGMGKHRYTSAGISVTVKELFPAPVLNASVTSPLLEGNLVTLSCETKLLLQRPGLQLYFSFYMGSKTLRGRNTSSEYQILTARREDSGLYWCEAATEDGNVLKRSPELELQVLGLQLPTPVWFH
human FcRn (human), sequence (P55899 24-297 limits assumed, chain 1 of 2): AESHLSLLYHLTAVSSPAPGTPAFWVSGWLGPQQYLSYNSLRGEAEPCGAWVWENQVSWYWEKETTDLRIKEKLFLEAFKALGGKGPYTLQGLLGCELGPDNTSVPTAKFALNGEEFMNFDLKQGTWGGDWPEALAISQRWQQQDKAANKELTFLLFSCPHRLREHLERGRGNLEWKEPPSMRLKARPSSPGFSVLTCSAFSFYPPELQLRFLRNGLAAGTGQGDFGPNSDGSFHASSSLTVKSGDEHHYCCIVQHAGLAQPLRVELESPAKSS
human FcRn (human), sequence (P61769 21-119 limits assumed, chain 2 of 2, further chain): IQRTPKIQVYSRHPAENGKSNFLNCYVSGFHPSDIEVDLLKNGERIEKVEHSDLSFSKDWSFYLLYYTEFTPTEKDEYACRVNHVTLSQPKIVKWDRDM

Work on “human IgG1 antibody having a N297S substitution (from UniProt P01857 1-330)” yielded a pKd [1] of 6.56 and a pKd [2] of 6.15.

Work on “antibody having wild type human IgG1 domain (from UniProt P01857 1-330)” yielded a pKd [3] of 5.68, a pKd [4] of 6.13 and a pKd [5] of 6.02. The pKd [6] was 4.82.
